Measured values taken from PMC9808001.

Columns and labels:
Assay in all cases: BLI; 25 nM WDR44 (334–389) wild type or mutant immobilised on anti-penta-His tips, […] nM Rab11; responses normalised to the mean wildtype response; 30 °C; 20 mM Hepes pH 7.5, 150 mM NaCl, 1 mM MgCl2, bovine serum albumin, 0.002% Tween-20
[1] = target: Strep-His WDR44 (334–389) K360E (human) (UniProt Q5JSH3)
[2] = target: Strep-His WDR44 (334–389) L354A (human) (UniProt Q5JSH3)
[3] = target: Strep-His WDR44 (334–389) L370A (human) (UniProt Q5JSH3)
[4] = target: Strep-His WDR44 (334–389) I359A (human) (UniProt Q5JSH3)
Chain of Strep-His WDR44 (334–389) I359A (human) (Q5JSH3 334-389 I359A): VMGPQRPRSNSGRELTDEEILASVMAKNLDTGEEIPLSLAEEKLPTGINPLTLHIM

Chain of Strep-His WDR44 (334–389) K360E (human) (Q5JSH3 334-389 K360E): as the sequence (Q5JSH3 334-389 I359A) above, with A26I, K27E counted along it
Chain of Strep-His WDR44 (334–389) L354A (human) (Q5JSH3 334-389 L354A): as the sequence (Q5JSH3 334-389 I359A) above, with L21A, A26I counted along it
Chain of Strep-His WDR44 (334–389) L370A (human) (Q5JSH3 334-389 L370A): as the sequence (Q5JSH3 334-389 I359A) above, with A26I, L37A counted along it

percent decrease in complex formation against wild type [1]: > 95% | percent decrease in complex formation against wild type [2]: > 95% | percent decrease in complex formation against wild type [3]: > 95% | percent decrease in complex formation against wild type [4]: > 95%
Substance: Rab11a (GTPγS-loaded) (from UniProt P62491 1-216) (natural protein)
